Each block holds one molecule with its values, some of them ahead of it.
Tests used:
[1] = target: μ-opioid receptor (MOP) (Mus musculus, UniProt P42866)
[2] = target: T1, MOP (Mus musculus, UniProt P42866); settings: 60 min of agonist exposure
[3] = target: T1, MOP; settings: 60 min of agonist exposure; remark: listed apart in the source
[4] = target: hemagglutinin (HA)-tagged mouse µ-opioid receptor (MOP), not phosphorylated (mouse) (UniProt P42866); test: saturation binding of [3H]DAMGO to membranes of HA-MOP-transfected HEK293 cells
[5] = target: hemagglutinin (HA)-tagged mouse µ-opioid receptor (MOP), not phosphorylated (mouse) (UniProt P42866); test: 7TM phosphorylation assay: HA-MOP of untreated cells on anti-HA magnetic beads
[6] = target: hemagglutinin (HA)-tagged mouse µ-opioid receptor (MOP), phosphorylated after DAMGO stimulation (mouse) (UniProt P42866); test: 7TM phosphorylation assay: HA-MOP of DAMGO-treated cells on anti-HA magnetic beads
[7] = target: hemagglutinin (HA)-tagged mouse µ-opioid receptor (MOP), phosphorylated after DAMGO stimulation (mouse) (UniProt P42866); test: 7TM phosphorylation assay: HA-MOP on anti-HA magnetic beads, rabbit primary antibody, enzyme-labeled secondary antibody

hemagglutinin (HA)-tagged mouse µ-opioid receptor (MOP), not phosphorylated (mouse), sequence (P42866 whole entry): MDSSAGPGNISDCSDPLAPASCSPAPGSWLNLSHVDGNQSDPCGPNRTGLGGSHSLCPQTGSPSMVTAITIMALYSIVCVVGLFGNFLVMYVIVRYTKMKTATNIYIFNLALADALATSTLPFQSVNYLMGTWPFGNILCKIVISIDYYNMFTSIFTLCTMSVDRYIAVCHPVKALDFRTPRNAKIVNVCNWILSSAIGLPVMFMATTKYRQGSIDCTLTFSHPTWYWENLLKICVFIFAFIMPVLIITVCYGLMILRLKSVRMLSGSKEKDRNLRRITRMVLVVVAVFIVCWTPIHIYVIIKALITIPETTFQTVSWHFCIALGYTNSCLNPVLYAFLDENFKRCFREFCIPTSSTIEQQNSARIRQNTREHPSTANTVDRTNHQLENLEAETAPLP
T1 sequence (P42866 whole entry): as above
μ-opioid receptor (MOP), sequence (P42866 whole entry): as above

Molecule: C[C@@H](NC(=O)[C@@H](N)Cc1ccc(O)cc1)C(=O)NCC(=O)N(C)[C@@H](Cc1ccccc1)C(=O)NCCO [DAMGO, [D-Ala2,N-MePhe4,Gly-ol]-enkephalin]
extent of MOP phosphorylation resulting from GRK2/3 recruitment [1]: full phosphorylation
recruitment of GRK2 and GRK3 to MOP [2]: high efficiency
β-arrestin1 and β-arrestin2 recruitment [3]: virtually identical to those of DAMGO-induced MOP phosphorylation

Molecule: CCCCCCCCCCCCCC(=O)O[C@@H]1[C@@H](C)[C@@]2(O)[C@@H](C=C(CO)C[C@]3(O)C(=O)C(C)=C[C@@H]23)[C@@H]2C(C)(C)[C@]12OC(C)=O [PMA, phorbol 12-myristate 13-acetate]
T370 phosphorylation of MOP (heterologous, PKC activation) [1]: potent and selective phosphorylation of T370

Molecule: [D-Ala2,N-MePhe4,Gly-ol]-enkephalin (DAMGO) (peptide)
functional MOPs per cell (saturation binding) (MOPs per cell) [4]: 300000

optical density (OD) read at 405 nm [5]: 0.8 OD at 405 nm
optical density (OD) read at 405 nm [6]: 0.8 OD at 405 nm
Molecule: anti-np-MOP antibody (7TM0319N)

optical density (OD) read at 405 nm [5]: 0.2 OD at 405 nm
optical density (OD) read at 405 nm [7]: 1.2 OD at 405 nm
Molecule: anti-pS375-MOP antibody (7TM0319C)

— patent US20250003976A1, “ANTIBODIES TARGETING PHOSPHORYLATED SEVEN-TRANSMEMBRANE RECEPTORS” (7TM ANTIBODIES GMBH, priority 2021, published 2025)
